Values belong to the binder of their own block, whether it stands above or below them.
B2: S100A4 (wild type, full-length) (natural protein)
chain: not shown
notes: S100A4, wild type, called full-length in the NMR experiment with M111; The tag and the vector are not described; also called Mts1; metastasin; source: E. coli BL21(DE3), purified (Ni-NTA, Superdex 75)
B4: M200, C-terminal fragment of human NM-MHC IIA (residues Q1761-E1960) (domain or fragment)
chain: QINTDLNLERSHAQKNENARQQLERQNKELKVKLQEMEGTVKSKYKASITALEAKIAQLEEQLDNETKERQAACKQVRRTEKKLKDVLLQVDDERRNAEQYKDQADKASTRLKQLKRQLEEAEEEAQRANASRRKLQRELEDATETADAMNREISSLKNKLRRGDLPFVVPRRMARKGAGDGSDEEVDGKADGAEAKPAE
modifications: Parallel coiled-coil dimer. N-terminal … tag omitted. The paper prints V1913I, but by its own numbering (D1908-R1923, G1938, G1940, D1941) 1913 is E and the only adjacent Val is V1914, so …

Experiments:
Conditions in all cases: both partners purified
[1] = molecular target: B2; assay: fluorescence polarisation; competition: displacement of F-M16^N (5 μM) from S100A4 (5 μM) by increasing M32 or M16^N, with Ca2+; fit to a competitive single-site model with Kd of F-M16^N fixed at 2 μM
[2] = molecular target: B2; assay: not stated; K0 of Scheme 1: binding in the absence of Ca2+; the experiment behind the limit is not told
[3] = molecular target: B2; assay: fluorescence polarisation; competition: displacement of F-M16^N (5 μM) from S100A4 (5 μM) by increasing M32 or M16^N, with Ca2+; fit to a competitive single-site model with Kd of F-M16^N fixed at 2 μM; remark: listed apart in the source
[4] = molecular target: B2; assay: stopped-flow Quin-2 fluorescence (Ca2+ dissociation); S100A4 + Ca2+ premixed with peptide or fragment, mixed with 100 μM Quin-2; 100 mM NaCl, 10 mM Hepes, 100 μM Ca2+, pH 7.5, 20 °C (M16^N also in 20 mM NaCl, 20 mM Tris, 1 mM DTT); apparent
[5] = molecular target: B4; assay: turbidity; apparent absorbance at 300 nm, manual mixing; 5 μM M200 filaments in 100 mM NaCl, 10 mM Hepes, 0.1 mM Ca2+, pH 7.5, 20 °C; S100A4 added, then EGTA, then Ca2+
S100A4 (wild type) = molecular target: T1, S100A4 (wild type) (UniProt P26447 1-101); assay: stopped-flow Quin-2 fluorescence (Ca2+ dissociation rate constant against [M32]); 10 uM S100A4 with Ca2+ premixed with M32 (0-50 uM), mixed with 100 uM Quin-2; kobs from single exponentials fitted against [M32] to a quadratic binding equation; apparent; legend says conditions as for Fig. 2c (taken as Fig. 5c: 100 mM NaCl, 10 mM Hepes, 100 uM Ca2+, pH 7.5, 20 C)
T1 construct: S100A4, wild type; predominantly a dimer under the conditions of the kinetic analysis; Concentrations are stated per monomer chain; only the Ni-NTA column is told; also called Mts1; metastasin; source: E. coli BL21(DE3), purified (Ni-NTA, Superdex 75 gel filtration)

[6] = molecular target: B2; assay: stopped-flow Quin-2 fluorescence (Ca2+ dissociation); S100A4 + Ca2+ premixed with peptide or fragment, mixed with 100 μM Quin-2; 100 mM NaCl, 10 mM Hepes, 100 μM Ca2+, pH 7.5, 20 °C (M16^N also in 20 mM NaCl, 20 mM Tris, 1 mM DTT); apparent; remark: listed apart in the source
[7] = molecular target: B2; assay: turbidity; as a12 in the presence of 250 μM M32 or 250 μM M16^N (competition for S100A4)
[8] = molecular target: B2; assay: turbidity; Ca2+ dependence of the turbidity assay of M200 with S100A4; details in Supplementary Data

T1 sequence (P26447 whole entry, one chain of several): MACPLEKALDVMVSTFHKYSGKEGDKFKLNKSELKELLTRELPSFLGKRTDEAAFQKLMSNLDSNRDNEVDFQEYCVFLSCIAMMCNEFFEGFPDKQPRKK

- KD (model in which one M32 spans two S100A4 monomers) [1]: 1500 nM
- Kd [2]: > 100000 nM
- Kd [3]: 3000 nM
- Kd [4]: 400 nM
B1: M32 myosin peptide (NM-MHC IIA A1907-G1938) (peptide, UniProt P35579-1 1907-1938, looked up)
peptide: Ac-ADAMNREVSSLKNKLRRGDLPFVVPRRMARKG-NH2
notes: nonmuscle myosin heavy chain IIA (NM-MHC IIA), human, residues A1907-G1938; source: synthetic peptide, bought: Peptide 2.0, Inc

Binder: B2
- stoichiometry N [5]: 2 S100A4 monomer per M200 polypeptide chain

- Kd (S100A4 (wild type)): 440 nM
B3: M32 peptide (A1907-G1938 of human nonmuscle myosin heavy chain IIA) (peptide, UniProt P35579-1 1907-1938, looked up)
peptide: Ac-ADAMNREVSSLKNKLRRGDLPFVVPRRMARKG-NH2
notes: as for B1

Binder: B4
- koff [6]: < 0.3 s⁻¹
- Kd [7]: ~1 nM
- Kd [8]: ≤ 3 nM
- Kd [2]: > 100000 nM

— article PMC3025356, “Mechanism of the Ca^2+-Dependent Interaction between S100A4 and Tail Fragments of Nonmuscle Myosin Heavy Chain IIA” (Journal of Molecular Biology, 2011)
